We go through three molecules from patent publication US20240092889A1 (Chugai, published 2024).

Usually Kd stands for the equilibrium constant for the complex coming apart.

Assay [1] deals with T1, recombinant human C1r2s2 tetramer (human, UniProt P09871 16-688; P00736 18-705).
T1 construct: C1s and C1r co-expressed in HEK293/FreeStyle 293-F and purified from conditioned medium
T1 chain 1: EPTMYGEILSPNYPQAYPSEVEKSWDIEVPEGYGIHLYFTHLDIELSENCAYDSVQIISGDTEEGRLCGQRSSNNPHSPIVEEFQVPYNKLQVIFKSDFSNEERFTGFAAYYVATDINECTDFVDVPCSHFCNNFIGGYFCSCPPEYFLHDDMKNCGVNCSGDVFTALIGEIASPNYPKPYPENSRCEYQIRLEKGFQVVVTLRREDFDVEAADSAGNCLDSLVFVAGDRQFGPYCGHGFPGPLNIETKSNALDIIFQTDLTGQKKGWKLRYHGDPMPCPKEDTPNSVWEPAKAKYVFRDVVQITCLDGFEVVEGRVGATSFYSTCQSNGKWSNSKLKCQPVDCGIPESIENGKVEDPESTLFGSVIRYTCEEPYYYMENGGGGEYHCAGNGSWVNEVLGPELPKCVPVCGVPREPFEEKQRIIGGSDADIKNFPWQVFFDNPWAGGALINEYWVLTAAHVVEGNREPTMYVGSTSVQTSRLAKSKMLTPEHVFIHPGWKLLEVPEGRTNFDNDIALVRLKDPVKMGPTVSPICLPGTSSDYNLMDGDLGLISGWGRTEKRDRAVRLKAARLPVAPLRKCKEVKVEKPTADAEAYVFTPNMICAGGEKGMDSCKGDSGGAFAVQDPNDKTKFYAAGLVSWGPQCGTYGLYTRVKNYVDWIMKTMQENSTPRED
T1 chain 2: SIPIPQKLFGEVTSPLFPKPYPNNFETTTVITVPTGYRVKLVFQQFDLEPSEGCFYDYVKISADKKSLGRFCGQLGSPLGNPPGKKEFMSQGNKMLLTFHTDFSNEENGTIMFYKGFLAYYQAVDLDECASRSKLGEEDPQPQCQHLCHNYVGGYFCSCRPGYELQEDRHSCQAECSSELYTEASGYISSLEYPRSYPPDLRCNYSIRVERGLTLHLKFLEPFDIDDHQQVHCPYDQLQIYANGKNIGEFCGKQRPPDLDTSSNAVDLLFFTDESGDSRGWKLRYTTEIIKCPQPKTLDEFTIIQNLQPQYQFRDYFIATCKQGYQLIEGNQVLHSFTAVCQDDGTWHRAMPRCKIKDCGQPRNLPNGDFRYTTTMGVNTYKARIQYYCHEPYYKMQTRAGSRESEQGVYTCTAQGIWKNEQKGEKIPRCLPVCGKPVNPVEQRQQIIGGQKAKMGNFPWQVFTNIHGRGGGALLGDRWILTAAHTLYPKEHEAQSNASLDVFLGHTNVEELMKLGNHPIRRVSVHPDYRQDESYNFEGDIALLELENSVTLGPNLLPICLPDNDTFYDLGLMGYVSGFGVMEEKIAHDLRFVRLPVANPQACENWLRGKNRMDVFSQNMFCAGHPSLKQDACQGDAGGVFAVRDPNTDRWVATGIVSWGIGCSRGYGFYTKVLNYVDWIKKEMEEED
The assay can be described thus: SPR (BIACORE T200), 37 C, ratio of KD at pH 5.8 to KD at pH 7.4. As for the experimental part:
(§1) KD (dissociation constant) value of each samples at pH 7.4 and pH 5.8 are determined at 37 degrees C. using BIACORE® T200 instrument (GE Healthcare). Purified Mouse Anti-Human Ig kappa Light Chain (GE Healthcare) can be immobilized onto all flow cells of a CMS sensor chip using an amine coupling kit (GE Healthcare). 20 mM ACES, 150 mM NaCl, 1.2 mM CaCl2, 1 mg/mL BSA (IgG-free), 1 mg/mL CMD, 0.05% Tween® 20, 0.005% NaN3, pH 7.4 or pH 5.8 buffer were used as running buffer. Each antibody can be captured onto the sensor surface by Anti-Human Ig kappa Light chain. Antibody capture levels are aimed at 50 resonance unit (RU). […] Sensor surface is regenerated each cycle with, e.g., Glycine pH 2.0 (GE Healthcare). KD values were obtained using BIACORE® T200 Evaluation software, version 2.0 (GE Healthcare).
(In general: SPR reads the build-up and loss of mass on a sensor chip optically.)

The target in assay [2] is T1, recombinant human C1r2s2 tetramer. The experiment in a line: SPR (BIACORE T200), 37 C, Ab captured via anti-human Ig kappa, human C1r2s2 as analyte, pH 7.4; pH 7.4, 37 C. As for the experimental part: as §1
The target is the same in assay [3]. The experiment in a line: SPR (BIACORE T200), 37 C, Ab captured via anti-human Ig kappa, human C1r2s2 as analyte, pH 5.8; pH 5.8 (acidic buffer), 37 C; antibody engineered for pH-dependent binding. As for the experimental part:
as §1

Assay [4] shares this target. The experiment in a line: SPR (BIACORE T200), 37 C, Ab captured via anti-human Ig kappa, human C1r2s2 as analyte, pH 7.4; pH 7.4, 37 C; kinetic KD, C1r2s2 up to 100-400 nM. As for the experimental part: as §1
The target is the same in assay [5]. The assay can be described thus: SPR (BIACORE T200), IPN009VH2Vk3-SG1148 immobilised on the chip, human C1r2s2 injected for capture, pH 7.4, 37 C. The source says:
Recombinant human C1r2s2 tetramer was first captured onto the sensor surface by the anti-C1r2s2 antibody. The capture levels were aimed at 200 resonance unit (RU). […] The sensor surface was regenerated each cycle with 3 M MgCl2. Sensorgrams were obtained using BIACORE® T200 Evaluation software, version 2.0 (GE Healthcare). […] For comparison of these sensorgrams, binging response of C1r2s2 was normalized as 100 RU. […] For comparison of these sensorgrams, baseline (before injecting antibodies) was adjusted to 0 RU.

B1: COS0637pHv3-TT91R (antibody, V domains shown)
VH: QVQLVESGGGVVQPGRSLRLSCAASGFTFSAYAMNWIRQPPGKGLEWIGLIYGSGHEFYASWAEERVTISVDTSKNQFSLKLSSVTAADTAVYYCARGRSKNYVSGFHLWGQGTLVTVSS
VL: DIQMTQSPSSLSASVGDRVTITCQASQILHDKKNLAWYQQKPGQPPKLLIYQASQLESGVPSRFSGSGSGTDFTLTISSLQPEDFATYYCHGEFSYESADLNQFGQGTKVEIKR
Regarding B1, in assay [1], the “KD (pH 5.8)/KD (pH 7.4)” value was determined as 278. In addition, the Kd in assay [2] turned out to be 7.66 nM; in assay [3] it was 2130 nM.

B2: COS0637pHv5-TT91R (antibody, V domains shown)
VH: QVQLVESGGGVVQPGRSLRLSCAASGFSFSAYAMNWIRQPPGKGLEWIGLIYGSGHEFYASWAEERVTISVDTSKNQFSLKLSSVTAADTAVYYCARGRSKNYVSGFHLWGQGTLVTVSS
VL: DIQMTQSPSSLSASVGDRVTITCQASGILHDKKNLAWYQQKPGQPPKLLIYGASQLESGVPSRFSGSGSGTDFTLTISSLQPEDFATYYCHGEFSYEEADLNTFGQGTKVEIKR
As to B2, in assay [4], the Kd is 6.43 nM.

B3: IPN009VH2VK3-SG1148 (antibody, human IgG1, kappa, V domains shown)
VH: EVMLVESGGGLVKPGGSLRLSCAASGFTFSNYAMSWVRQAPGKGLEWVATISSGGSHTYYLDSVKGRFTISRDNSKDTLYLQMNSLRAEDTALYYCARLFTGYAMDYWGQGTLVTVSS
VL: QIVLTQSPATLSLSPGERATLSCTASSSVSSSYLHWYQQKPGKAPKLWIYSTSNLASGVPSRFSGSGSGTDYTLTISSLQPEDFATYYCHQYYRLPPITFGQGTKLEIKR
notes: also called anti-human C1r2s2 antibody
Consider B3, for which, in assay [5], the binding result was “binds”.
